Measurements as given in PMC3793860, “A role for the vesicle-associated tubulin binding protein ARL6 (BBS3) in flagellum extension in Trypanosoma brucei” (Biochimica et Biophysica Acta, 2012).

Biological target: freshly polymerised microtubules (Microtubule Binding Protein Spin-Down Assay kit, Cytoskeleton, Inc.)
Test: co-sedimentation; microtubule spin-down: 2.5 μg protein, 30 min at room temperature with freshly polymerised microtubules (equivalent of 2 μM tubulin dimer), 20 μM Taxol, 10 mM MgCl2 and 4 mM GDP or GTP; 100,000 g for 40 min through a 60% glycerol cushion; supernatant and pellet on Coomassie gel

freshly polymerised microtubules (Microtubule Binding Protein Spin-Down Assay kit, Cytoskeleton, Inc.), sequence (P68363 whole entry, chain 1 of 2): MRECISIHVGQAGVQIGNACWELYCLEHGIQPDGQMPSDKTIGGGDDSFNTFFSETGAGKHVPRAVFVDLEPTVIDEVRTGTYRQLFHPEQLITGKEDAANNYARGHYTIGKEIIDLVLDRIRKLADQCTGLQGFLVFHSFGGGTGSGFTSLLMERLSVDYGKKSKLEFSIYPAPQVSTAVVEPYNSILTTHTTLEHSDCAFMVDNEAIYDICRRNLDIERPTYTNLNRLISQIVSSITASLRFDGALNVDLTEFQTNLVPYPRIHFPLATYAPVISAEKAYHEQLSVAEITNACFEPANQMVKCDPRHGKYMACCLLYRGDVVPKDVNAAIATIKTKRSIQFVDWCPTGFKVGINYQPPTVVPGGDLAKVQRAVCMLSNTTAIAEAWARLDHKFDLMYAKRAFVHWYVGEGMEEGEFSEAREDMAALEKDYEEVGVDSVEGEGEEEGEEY
freshly polymerised microtubules (Microtubule Binding Protein Spin-Down Assay kit, Cytoskeleton, Inc.), sequence (A8K068 whole entry, chain 2 of 2, further chain): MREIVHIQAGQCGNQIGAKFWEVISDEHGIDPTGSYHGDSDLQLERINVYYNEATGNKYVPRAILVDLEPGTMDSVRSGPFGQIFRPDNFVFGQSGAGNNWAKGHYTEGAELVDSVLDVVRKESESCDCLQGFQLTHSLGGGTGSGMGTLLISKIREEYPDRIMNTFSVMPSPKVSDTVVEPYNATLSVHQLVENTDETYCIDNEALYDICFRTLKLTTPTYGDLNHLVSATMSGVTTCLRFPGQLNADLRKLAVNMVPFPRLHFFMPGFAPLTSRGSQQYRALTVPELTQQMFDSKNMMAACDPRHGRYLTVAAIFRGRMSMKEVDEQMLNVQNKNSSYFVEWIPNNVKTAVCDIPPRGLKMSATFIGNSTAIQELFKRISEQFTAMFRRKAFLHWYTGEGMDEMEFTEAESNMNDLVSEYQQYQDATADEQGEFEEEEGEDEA

Substance “N-terminal His-tagged recombinant T. brucei ARL6 (natural protein)” has a percent of the protein in the insoluble fraction with microtubules, with GDP of 36% and a percent of the protein in the insoluble fraction with microtubules, with GTP of 20%.
